For experiment [1], the target named is AqpZ nanodiscs (AqpZ, MSP1E3D1 and DOPC/POPG 4:1) (E. coli | not stated) (UniProt P60844). As to the kind of experiment: mass photometry; 10 nM AqpZ nanodiscs in TEN buffer (300 mM NaCl); nanodisc with nanodisc.
The target of experiment [2] is T1, E. coli Aquaporin Z (AqpZ) (E. coli), P60844.
T1 chain: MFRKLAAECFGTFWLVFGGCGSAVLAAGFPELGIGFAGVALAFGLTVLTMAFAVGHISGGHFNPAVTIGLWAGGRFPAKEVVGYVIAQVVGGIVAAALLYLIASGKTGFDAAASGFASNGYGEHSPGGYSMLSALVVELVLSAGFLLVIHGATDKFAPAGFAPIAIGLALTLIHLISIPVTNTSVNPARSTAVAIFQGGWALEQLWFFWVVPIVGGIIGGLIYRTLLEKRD
In words: SDS-PAGE with or without heating; purified AqpZ nanodiscs (ND) or AqpZ in OG micelles, heated to 70 °C or unheated. The settings on record: remark: other sources report otherwise.

As usually defined, the stoichiometry N is the number of molecules, sites or subunits per partner or assembly. The molecule “AqpZ nanodiscs (AqpZ, MSP1E3D1 and DOPC/POPG 4:1) (from UniProt P60844 1-231) (complex)” showed a stoichiometry N in experiment [1] of 2.

B1: E. coli Aquaporin Z (AqpZ), P60844 1-231 (natural protein)
chain: MFRKLAAECFGTFWLVFGGCGSAVLAAGFPELGIGFAGVALAFGLTVLTMAFAVGHISGGHFNPAVTIGLWAGGRFPAKEVVGYVIAQVVGGIVAAALLYLIASGKTGFDAAASGFASNGYGEHSPGGYSMLSALVVELVLSAGFLLVIHGATDKFAPAGFAPIAIGLALTLIHLISIPVTNTSVNPARSTAVAIFQGGWALEQLWFFWVVPIVGGIIGGLIYRTLLEKRD
For B1, the stoichiometry N in experiment [2] is 4.

Values taken from publication PMC10178869.
